From patent US20230220589A1
One block for each binder: values may come before it.

How the values were obtained:
[1] = biological target: M17-modified F NTAA target peptides; assay: encoding assay; P2 N;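 note: fraction of recording tags encoded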
[2] = biological target: M17-modified P NTAA target peptides; assay: encoding assay; P2 N;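 note: fraction of recording tags encoded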
[3] = biological target: M17-modified T NTAA target peptides; assay: encoding assay; P2 N;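 note: fraction of recording tags encoded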
[4] = biological target: M17-modified N NTAA target peptides; assay: encoding assay; P2 N;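 note: fraction of recording tags encoded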
[5] = biological target: M17-modified D NTAA target peptides; assay: encoding assay; P2 N;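 note: fraction of recording tags encoded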
[6] = biological target: M17-modified A NTAA target peptides; assay: encoding assay; P2 N;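 note: fraction of recording tags encoded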
[7] = biological target: M17-modified I NTAA target peptides; assay: encoding assay; P2 N;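 note: fraction of recording tags encoded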
[8] = biological target: M17-modified M NTAA target peptides; assay: encoding assay; P2 N;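 note: fraction of recording tags encoded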
[9] = biological target: M17-modified F NTAA target peptides; assay: encoding assay; P2 M;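 note: fraction of recording tags encoded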
[10] = biological target: M17-modified P NTAA target peptides; assay: encoding assay; P2 M;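 note: fraction of recording tags encoded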
[11] = biological target: M17-modified H NTAA target peptides; assay: encoding assay; P2 M;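 note: fraction of recording tags encoded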
[12] = biological target: M17-modified T NTAA target peptides; assay: encoding assay; P2 M;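 note: fraction of recording tags encoded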
[13] = biological target: M17-modified N NTAA target peptides; assay: encoding assay; P2 M;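 note: fraction of recording tags encoded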
[14] = biological target: M17-modified D NTAA target peptides; assay: encoding assay; P2 M;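 note: fraction of recording tags encoded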
[15] = biological target: M17-modified L NTAA target peptides; assay: encoding assay; P2 M;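 note: fraction of recording tags encoded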
[16] = biological target: M17-modified S NTAA target peptides; assay: encoding assay; P2 M;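 note: fraction of recording tags encoded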
[17] = biological target: M17-modified E NTAA target peptides; assay: encoding assay; P2 M;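 note: fraction of recording tags encoded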
[18] = biological target: M17-modified A NTAA target peptides; assay: encoding assay; P2 M;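 note: fraction of recording tags encoded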
[19] = biological target: M17-modified G NTAA target peptides; assay: encoding assay; P2 M;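 note: fraction of recording tags encoded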
[20] = biological target: M17-modified Y NTAA target peptides (M17-Y-P2-peptide); assay: encoding assay; P2 M;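 note: fraction of recording tags encoded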
[21] = biological target: M17-modified V NTAA target peptides; assay: encoding assay; P2 M;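 note: fraction of recording tags encoded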
[22] = biological target: M17-modified W NTAA target peptides; assay: encoding assay; P2 M;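 note: fraction of recording tags encoded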
[23] = biological target: M17-modified Q NTAA target peptides; assay: encoding assay; P2 M;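 note: fraction of recording tags encoded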
[24] = biological target: M17-modified I NTAA target peptides; assay: encoding assay; P2 M;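 note: fraction of recording tags encoded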
[25] = biological target: M17-modified M NTAA target peptides; assay: encoding assay; P2 M;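 note: fraction of recording tags encoded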
[26] = biological target: M17-modified F NTAA target peptides; assay: encoding assay; P2 V;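 note: fraction of recording tags encoded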
[27] = biological target: M17-modified P NTAA target peptides; assay: encoding assay; P2 V;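 note: fraction of recording tags encoded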
[28] = biological target: M17-modified H NTAA target peptides; assay: encoding assay; P2 V;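 note: fraction of recording tags encoded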
[29] = biological target: M17-modified T NTAA target peptides; assay: encoding assay; P2 V;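 note: fraction of recording tags encoded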
[30] = biological target: M17-modified N NTAA target peptides; assay: encoding assay; P2 V;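 note: fraction of recording tags encoded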
[31] = biological target: M17-modified D NTAA target peptides; assay: encoding assay; P2 V;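 note: fraction of recording tags encoded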
[32] = biological target: M17-modified L NTAA target peptides; assay: encoding assay; P2 V;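 note: fraction of recording tags encoded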
[33] = biological target: M17-modified S NTAA target peptides; assay: encoding assay; P2 V;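 note: fraction of recording tags encoded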
[34] = biological target: M17-modified E NTAA target peptides; assay: encoding assay; P2 V;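 note: fraction of recording tags encoded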
[35] = biological target: M17-modified A NTAA target peptides; assay: encoding assay; P2 V;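 note: fraction of recording tags encoded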
[36] = biological target: M17-modified G NTAA target peptides; assay: encoding assay; P2 V;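 note: fraction of recording tags encoded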
[37] = biological target: M17-modified Y NTAA target peptides (M17-Y-P2-peptide); assay: encoding assay; P2 V;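 note: fraction of recording tags encoded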
[38] = biological target: M17-modified V NTAA target peptides; assay: encoding assay; P2 V;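 note: fraction of recording tags encoded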
[39] = biological target: M17-modified W NTAA target peptides; assay: encoding assay; P2 V;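 note: fraction of recording tags encoded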
[40] = biological target: M17-modified Q NTAA target peptides; assay: encoding assay; P2 V;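 note: fraction of recording tags encoded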
[41] = biological target: M17-modified I NTAA target peptides; assay: encoding assay; P2 V;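 note: fraction of recording tags encoded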
[42] = biological target: M17-modified M NTAA target peptides; assay: encoding assay; P2 V;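 note: fraction of recording tags encoded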
[43] = biological target: M44-modified L NTAA target peptides (M44-L-P2-peptide); assay: Gini coefficient of P2 tolerance from multiplex encoding heatmap
[44] = biological target: M44-modified V NTAA target peptides; assay: encoding assay; P2 V;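 note: fraction of recording tags encoded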
[45] = biological target: M44-modified G NTAA target peptides (M44-G-P2-peptide); assay: encoding assay; P2 N;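 note: fraction of recording tags encoded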
[46] = biological target: M44-modified D NTAA target peptides; assay: encoding assay; P2 M;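 note: fraction of recording tags encoded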
[47] = biological target: M44-modified A NTAA target peptides (M44-A-P2-peptide); assay: encoding assay; P2 M;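 note: fraction of recording tags encoded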
[48] = biological target: M44-modified H NTAA target peptides; assay: encoding assay; P2 M;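 note: fraction of recording tags encoded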
[49] = biological target: M44-modified W NTAA target peptides; assay: encoding assay; P2 M;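 note: fraction of recording tags encoded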
[50] = biological target: M44-modified Q NTAA target peptides; assay: encoding assay; P2 M;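 note: fraction of recording tags encoded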
[51] = biological target: M44-modified G NTAA target peptides (M44-G-P2-peptide); assay: encoding assay; P2 M;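 note: fraction of recording tags encoded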
[52] = biological target: M44-modified S NTAA target peptides; assay: encoding assay; P2 M
[53] = biological target: M44-modified E NTAA target peptides; assay: encoding assay; P2 V;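 note: fraction of recording tags encoded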
[54] = biological target: M44-modified G NTAA target peptides (M44-G-P2-peptide); assay: encoding assay; P2 V;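 note: fraction of recording tags encoded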

encoding yield [1]: 0.02 | encoding yield [2]: 0.01 | encoding yield [3]: 0.01 | encoding yield [4]: 0.03 | encoding yield [5]: 0.02 | encoding yield [6]: 0.02 | encoding yield [7]: 0.02 | encoding yield [8]: 0.01 | encoding yield [9]: 0.03 | encoding yield [10]: 0.02 | encoding yield [11]: 0.01 | encoding yield [12]: 0.04 | encoding yield [13]: 0.02 | encoding yield [14]: 0.02 | encoding yield [15]: 0.02 | encoding yield [16]: 0.01 | encoding yield [17]: 0.02 | encoding yield [18]: 0.01 | encoding yield [19]: 0.01 | encoding yield [20]: 0.1 | encoding yield [21]: 0.03 | encoding yield [22]: 0.01 | encoding yield [23]: 0.01 | encoding yield [24]: 0.06 | encoding yield [25]: 0.01 | encoding yield [26]: 0.13 | encoding yield [27]: 0.02 | encoding yield [28]: 0.04 | encoding yield [29]: 0.03 | encoding yield [30]: 0.02 | encoding yield [31]: 0.03 | encoding yield [32]: 0.02 | encoding yield [33]: 0.02 | encoding yield [34]: 0.01 | encoding yield [35]: 0.02 | encoding yield [36]: 0.01 | encoding yield [37]: 0.22 | encoding yield [38]: 0.01 | encoding yield [39]: 0.04 | encoding yield [40]: 0.02 | encoding yield [41]: 0.05 | encoding yield [42]: 0.02
B1: engineered M17-Y binder (SEQ ID NO: 61) (designed binder, not shown: small tags and cut ends; large carriers)
chain: TVPDRSEIAGKWYVVALASNTEFYLREKDWVKSAMARISFLGEDELKVSSAVPSPNGCYKVERTWKKTSDDGEVYNSRAAKLKVEVLDTDYKSYAVIYATRVKDGRTDHQMILYSRSPEVSPAATAIFRKLAGERNYTDEMVAMLPRQEECTVDEV

encoding yield [1]: 0.01 | encoding yield [2]: 0.02 | encoding yield [3]: 0.01 | encoding yield [4]: 0.04 | encoding yield [5]: 0.02 | encoding yield [6]: 0.02 | encoding yield [7]: 0.03 | encoding yield [8]: 0.02 | encoding yield [9]: 0.06 | encoding yield [10]: 0.03 | encoding yield [11]: 0.01 | encoding yield [12]: 0.05 | encoding yield [13]: 0.02 | encoding yield [14]: 0.02 | encoding yield [15]: 0.04 | encoding yield [16]: 0.01 | encoding yield [17]: 0.03 | encoding yield [18]: 0.02 | encoding yield [19]: 0.02 | encoding yield [20]: 0.23 | encoding yield [21]: 0.03 | encoding yield [22]: 0.03 | encoding yield [23]: 0.01 | encoding yield [24]: 0.1 | encoding yield [25]: 0.02 | encoding yield [26]: 0.17 | encoding yield [27]: 0.03 | encoding yield [28]: 0.04 | encoding yield [29]: 0.04 | encoding yield [30]: 0.03 | encoding yield [31]: 0.03 | encoding yield [32]: 0.03 | encoding yield [33]: 0.03 | encoding yield [34]: 0.02 | encoding yield [35]: 0.03 | encoding yield [36]: 0.02 | encoding yield [37]: 0.32 | encoding yield [38]: 0.01 | encoding yield [39]: 0.08 | encoding yield [40]: 0.02 | encoding yield [41]: 0.07 | encoding yield [42]: 0.03
B2: upgraded binder after additional maturation round (SEQ ID NO: 62) (designed binder, not shown: small tags and cut ends; large carriers)
chain: TVPDRSEIAGKWYVVALASNTEFYLRGKDRVKSAMVRISFQGEDELKVSSAVPSPNGCYKVERTWKKTSDDGEVYNSRAAKLKVEVLDTDYKSYAVIYATRVKDRRTDHQMILYSRSPDVSPAATAIFRKLAGERNYTDEMVAMLPRQEECTVDEV

encoding yield [44]: 0.01
B3: engineered M44-L binder (SEQ ID NO: 21) (designed binder, not shown: small tags and cut ends; large carriers)
chain: QVSVQPNFQQDKFLGRWFYAGHASNSSWYREKVAALSMAKLVVAPATDGGLNATETFLRKNQCETITSLLQPAGSLGSYSSRSPHGGSTWSTSVVETDYDQYALLYLQGSKGPGEDFRGAILASRTQTPRAELKEKFTAFSKAQGFTEDTIVFLPQTDKCMTEQ
P2 score [43]: 0.408

encoding yield [45]: 0.02 | encoding yield [46]: 0.01 | encoding yield [47]: 0.02 | encoding yield [48]: 0.01 | encoding yield [49]: 0.03 | encoding yield [50]: 0.01 | encoding yield [51]: 0.01 | encoding yield [52]: 0.01 | encoding yield [53]: 0.01 | encoding yield [54]: 0.01
B4: engineered M44-L binder (SEQ ID NO: 31) (designed binder, not shown: small tags and cut ends; large carriers)
chain: QDSTQNLIPAPPLISVPLQPGFWTERFQGRWFLVGFAGNAVQKERQSRLTMQSLILELQEDNSYNITAINVRGQGCRYIISTLVPSSRPGQFTLGNIHSYPQIQSLDVQVADTDYDQFAMVFLQGTSENKQYFEVALAGRTKGLSDELKERFVSFAKSLGLKDNNIVFSVPTDQCIDN
P2 score [43]: 0.331

encoding yield [45]: 0.03 | encoding yield [46]: 0.02 | encoding yield [47]: 0.1 | encoding yield [48]: 0.01 | encoding yield [49]: 0.01 | encoding yield [50]: 0.01 | encoding yield [51]: 0.04 | encoding yield [52]: 0.04 | encoding yield [53]: 0.03 | encoding yield [54]: 0.01 | encoding yield [44]: 0.01
B5: engineered M44-A binder (SEQ ID NO: 42) (designed binder, not shown: small tags and cut ends; large carriers)
chain: QVSVQPNFQQDKFLGRWFVAGLASNSSWDREKVAALSGAKMVVAPATDGGLNVTRTMLRKNQCETYTGLLQPAGSLGSYSWRSPHPGSTGSESVVETDYDQYALVYGQGSKGPGEDLRAAALWSRTQTPRAELKEKFTAFSKAQGFTEDTIVFLPQTDKCMTEQ
